Assay results as given in US20250304640A1 (ORIKINE BIO SL, published 2025).
Changes are numbered by the printed parent chain. Numbers in names are those of the source. Like-named read-outs stand apart in the source and are kept apart here. Blank lines part the entries; values can stand above or below the binder they belong to.

Columns and labels:
Test in all cases: cell-based or functional assay
CSF1 receptor (CSF1R) = CSF1 receptor (CSF1R) (UniProt P07333 20-972, limits assumed)
[1] = molecular target: T1, IL-10 receptor (IL-10R: IL10RA and IL10RB) on HEK-Blue IL-10 reporter cells (UniProt Q13651 22-578; Q08334 20-325, limits assumed)
T1 sequence (looked up) 1: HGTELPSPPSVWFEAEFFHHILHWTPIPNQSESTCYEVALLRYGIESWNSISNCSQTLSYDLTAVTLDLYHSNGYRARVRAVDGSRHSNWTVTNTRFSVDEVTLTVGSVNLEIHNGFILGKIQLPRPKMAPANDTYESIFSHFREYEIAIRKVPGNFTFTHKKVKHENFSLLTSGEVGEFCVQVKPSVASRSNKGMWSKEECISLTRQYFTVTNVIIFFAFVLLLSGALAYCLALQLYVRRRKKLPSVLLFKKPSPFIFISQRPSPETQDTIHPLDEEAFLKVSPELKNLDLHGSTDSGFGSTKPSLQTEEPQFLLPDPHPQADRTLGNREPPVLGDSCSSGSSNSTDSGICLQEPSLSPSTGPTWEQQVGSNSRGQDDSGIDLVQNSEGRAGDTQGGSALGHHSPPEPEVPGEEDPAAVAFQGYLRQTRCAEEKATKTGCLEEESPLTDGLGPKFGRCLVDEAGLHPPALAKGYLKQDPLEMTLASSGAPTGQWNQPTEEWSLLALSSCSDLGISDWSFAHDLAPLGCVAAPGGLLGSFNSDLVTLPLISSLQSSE
T1 sequence (looked up) 2: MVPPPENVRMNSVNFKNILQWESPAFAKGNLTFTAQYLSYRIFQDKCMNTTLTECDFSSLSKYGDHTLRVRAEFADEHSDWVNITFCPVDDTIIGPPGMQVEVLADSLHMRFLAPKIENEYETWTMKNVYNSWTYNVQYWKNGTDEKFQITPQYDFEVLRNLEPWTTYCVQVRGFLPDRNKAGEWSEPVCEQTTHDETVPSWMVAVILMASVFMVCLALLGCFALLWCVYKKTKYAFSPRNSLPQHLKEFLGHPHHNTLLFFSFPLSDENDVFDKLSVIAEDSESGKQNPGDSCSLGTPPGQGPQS

IL10RB = molecular target: T2, IL10RB (UniProt Q08334 20-325, limits assumed)
T2 sequence (looked up): T1 sequence (looked up) 2

IL10RA = molecular target: T3, IL10RA (UniProt Q13651 22-578, limits assumed)
T3 sequence (looked up): T1 sequence (looked up) 1

[2] = molecular target: T1, IL-10 receptor (IL-10R: IL10RA and …); remark: listed apart in the source

Sequence of CSF1 receptor (CSF1R) (P07333 20-972 limits assumed): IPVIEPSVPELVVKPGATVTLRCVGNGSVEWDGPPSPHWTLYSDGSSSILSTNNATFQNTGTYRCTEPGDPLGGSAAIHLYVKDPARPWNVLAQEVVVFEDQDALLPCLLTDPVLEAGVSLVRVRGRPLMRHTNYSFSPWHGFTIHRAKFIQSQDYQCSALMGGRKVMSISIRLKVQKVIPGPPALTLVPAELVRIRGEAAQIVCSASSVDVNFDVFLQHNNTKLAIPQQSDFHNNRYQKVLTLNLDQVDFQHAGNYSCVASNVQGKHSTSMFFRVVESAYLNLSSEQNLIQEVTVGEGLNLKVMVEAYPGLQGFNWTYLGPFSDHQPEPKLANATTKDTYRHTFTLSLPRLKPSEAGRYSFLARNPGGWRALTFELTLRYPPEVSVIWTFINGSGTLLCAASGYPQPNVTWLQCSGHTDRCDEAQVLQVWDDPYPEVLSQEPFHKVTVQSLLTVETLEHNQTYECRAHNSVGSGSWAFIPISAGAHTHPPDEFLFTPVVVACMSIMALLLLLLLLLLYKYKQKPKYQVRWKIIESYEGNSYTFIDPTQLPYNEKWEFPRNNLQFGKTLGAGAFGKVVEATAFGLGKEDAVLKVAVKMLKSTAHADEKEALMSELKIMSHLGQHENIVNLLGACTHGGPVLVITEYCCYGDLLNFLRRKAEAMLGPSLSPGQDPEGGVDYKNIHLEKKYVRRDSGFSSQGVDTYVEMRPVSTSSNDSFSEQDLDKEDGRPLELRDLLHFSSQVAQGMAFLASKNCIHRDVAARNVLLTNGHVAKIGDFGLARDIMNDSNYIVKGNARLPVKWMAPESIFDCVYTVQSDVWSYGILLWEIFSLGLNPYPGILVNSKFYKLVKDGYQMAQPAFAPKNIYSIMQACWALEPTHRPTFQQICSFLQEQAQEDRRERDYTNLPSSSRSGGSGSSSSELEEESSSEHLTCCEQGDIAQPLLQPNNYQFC

B2: ORK10-003-HiBit (ligand)
chain: MTQSENSCTHFPGNLPNMLRDLRDAFSRVKTFFQMKDQLDNLLLKESLLEDFKGYLGCQALSEMIQFYLEEVMPQAENQDPDIKAHVNSLGENLKTLRLRLRRCHRFLPCENKSKAVEQVKNAFNKLQEKGIYKAMSEFDIFINYIEAYLYKTITPEFANMLRDLRDAFSRVKTFFQMKDQLDNLLLKESLLEDFKGYLGCQALSEMIQFYLEEVMPQAENQDPDIKAHVNSLGENLKTLRLRLRRCHRFLPCENKSKAVEQVKNAFNKLQEKGIYKAMSEFDIFINYIEAYMTMGGVSGWRLFKKIS
- EC-50, HEK-Blue IL-10 reporter cells (IL10RB): 9.53e-11
- EC-50, HEK-Blue IL-10 reporter cells (IL10RA): 9.44e-11

B4: Foldikine10_cut116 (ligand)
chain: NKSKAVEQVKNAFNKLQEKGIYKAMSEFDIFINYIEAYMTMNNGGLDYLPNMLRDLRDAFSRVKTFFQMKDQLDNLLLKESLLEDFKGYLGCQALSEMIQFYLEEVMPQAENQDPDIKAHVNSLGENLKTLRLRLRRNHRFLPCENKSKAVEQVKNAFNKLQEKGIYKAMSEFDIFINYIEAYMTMNNGGLDYLPNMLRDLRDAFSRVKTFFQMKDQLDNLLLKESLLEDFKGYLGCQALSEMIQFYLEEVMPQAENQDPDIKAHVNSLGENLKTLRLRLRRNHRFLPCE
- IL-10 EC-50, HEK-Blue IL-10 reporter cells [2]: 2.41e-10

B5: CSF1-Foldikine10_cut116-HiBit (ligand)
chain: EEVSEYCSHMIGSGHLQSLQRLIDSQMETSCQITFEFVDQEQLKDPVCYLKKAFLLVQDIMEDTMRFRDNTPNAIAIVQLQELSLRLKSCFTKDYEEHDKACVRTFYETPLQLLEKVKNVFNETKNLLDKDWNIFSKNCNNSFAECSSQDGGGGGSGGSGGSGGSGGSGGSGGSGGSGGGMTQSENSCTHFPGNLPNMLRDLRDAFSRVKTFFQMKDQLDNLLLKESLLEDFKGYLGCQALSEMIQFYLEEVMPQAENQEPDIKAHVNSLGENLKTLRLRLRRCHRFLPCENKSKAVEQVKNAFNKLQEKGIYKAMSEFDIFINYIEAYMTMNNGGLDYLPNMLRDLRDAFSRVKTFFQMKDQLDNLLLKESLLEDFKGYLGCQALSEMIQFYLEEVMPQAENQDPDIKAHVNSLGENLKTLRLRLRRNHRFLPCENKSKAVEQVKNAFNKLQEKGIYKAMSEFDIFINYIEAYMTMKIRNGGVSGWRLFKKIS
- IL-10 EC-50, HEK-Blue IL-10 reporter cells [2]: 3.06e-10

B6: Foldikine10_cut116-CSF1-HiBit (ligand)
chain: NKSKAVEQVKNAFNKLQEKGIYKAMSEFDIFINYIEAYMTMNNGGLDYLPNMLRDLRDAFSRVKTFFQMKDQLDNLLLKESLLEDFKGYLGCQALSEMIQFYLEEVMPQAENQDPDIKAHVNSLGENLKTLRLRLRRNHRFLPCENKSKAVEQVKNAFNKLQEKGIYKAMSEFDIFINYIEAYMTMNNGGLDYLPNMLRDLRDAFSRVKTFFQMKDQLDNLLLKESLLEDFKGYLGCQALSEMIQFYLEEVMPQAENQDPDIKAHVNSLGENLKTLRLRLRRNHRFLPCEGGGGGSGGSGGSGGSGGSGGSGGSGGSGGGEEVSEYCSHMIGSGHLQSLQRLIDSQMETSCQITFEFVDQEQLKDPVCYLKKAFLLVQDIMEDTMRFRDNTPNAIAIVQLQELSLRLKSCFTKDYEEHDKACVRTFYETPLQLLEKVKNVFNETKNLLDKDWNIFSKNCNNSFAECSSQDGGGVSGWRLFKKIS
- IL-10 EC-50, HEK-Blue IL-10 reporter cells [2]: 4.95e-10

Further lines, results first:

- CSF1 EC-50, HEK293 CSF1R/SRE reporter (CSF1 receptor (CSF1R)): 3.18e-09
- IL-10 EC-50, HEK-Blue IL-10 reporter cells [1]: 1.36e-09
B1: Foldikine10-CSF1-HiBit (ligand)
chain: MTQSENSCTHFPGNLPNMLRDLRDAFSRVKTFFQMKDQLDNLLLKESLLEDFKGYLGCQALSEMIQFYLEEVMPQAENQEPDIKAHVNSLGENLKTLRLRLRRCHRFLPCENKSKAVEQVKNAFNKLQEKGIYKAMSEFDIFINYIEAYMTMNNGGLDYLPNMLRDLRDAFSRVKTFFQMKDQLDNLLLKESLLEDFKGYLGCQALSEMIQFYLEEVMPQAENQDPDIKAHVNSLGENLKTLRLRLRRNHRFLPCENKSKAVEQVKNAFNKLQEKGIYKAMSEFDIFINYIEAYMTMKIRNGGGGGSGGSGGSGGSGGSGGSGGSGGSGGGEEVSEYCSHMIGSGHLQSLQRLIDSQMETSCQITFEFVDQEQLKDPVCYLKKAFLLVQDIMEDTMRFRDNTPNAIAIVQLQELSLRLKSCFTKDYEEHDKACVRTFYETPLQLLEKVKNVFNETKNLLDKDWNIFSKNCNNSFAECSSQDGGVSGWRLFKKIS

- EC-50, HEK-Blue IL-10 reporter cells (IL10RB): 1.19e-10
B3: ORK10-003-HiBit N92E (ligand)
chain: B2 chain with N231E
